# Values quoted from earlier work, collected in paper PMC5603210.
# pKd: −log10 of the molar value.
# Target: von Willebrand factor (Homo sapiens) (UniProt P04275)
substance,measurement,value
Factor VIII (from UniProt P00451),pKd,9.30
